{"source": "the DeepSol protein solubility set", "data": [{"test": "soluble on expression in E. coli; label from the status in PepcDB or PDB records", "values": [{"sequence": "VRSTPPASAGRSTPPALAGHSTPPALAGHSTLCGRPVAGDRALIMAIVNRTPDSFYDKGATFSDAAARDAVHRAVADGADVIDVGGVKAGPGERVDVDTEITRLVPFIEWLRGAYPDQLISVDTWRAQVAKAACAAGADLINDTWGGVDPAMPEVAAEFGAGLVCAHTGGALPRTRPFRVSYGTTTRGVVDAVISQVTAAAERAVAAGVAREKVLIDPAHDFGKNTFHGLLLLRHVADLVMTGWPVLMALSNKDVVGETLGVDLTERLEGTLAATALAAAAGARMFRVHEVAATRRVLEMVASIQGVRPPTRTVRGLA", "soluble on expression in E. coli": "soluble"}, {"sequence": "MGSDKIHHHHHHLLQAELGITSQRHFYSIGHLFPCGQLLERSRFNRRSKQLIWLVQFIRKAMSEMLPSDKLAIIDSFPLPLCQPVRNHRASIFKGLADIGYNASKHLWFYGFKVHMLVTLSGYILNYVVTPASVHDIKVVYELLEGCKQSVILGDLGYLSSELKKDLEQEGYHLWTPFRKNMTGAEEHNNWKVMAMRRTIETRFSELCRLFDIEHTLTRSLAGLQLRMEQIILAHNLRYFEMN", "soluble on expression in E. coli": "not soluble"}, {"sequence": "GSMDPSGVKVLETAEDIQERRQQVLDRYHRFKELSTLRRQKLEDSYRFQFFQRDAEELEKWIQEKLQIASDENYKDPTNLQGKLQKHQAFEAEVQANSGAIVKLDETGNLMISEGHFASETIRTRLMELHRQWELLLEKMREKGIKLLQ", "soluble on expression in E. coli": "soluble"}, {"sequence": "MGSDKIHHHHHHMKLQDFLGKDEKWSFDAIAEDADLARQIQIVLIGLVLLEPPADGKFGPVSVIALKKFQELTKTEESGFLGAVTAKKLIETKIDDLPKPPLKLGNDIASKIVKYMIAKGYQVFTNPKEYNIVYIEGMNGDWTLNSDTPNQFNDRRIVIEVVNGIPKIVDHWEATTEPGKYYTYNPMNPKGAARIQFGQYKAWAVGTHGTAEPHEALVQVGDITVCRDFNQDFKRTGDKLDTGDNFYVNQHYGFDFPQNDIRLASAGCLVGRTREGHREFMAIVKQDRRYVANRKYTFYTTVIPGDDLLKTFPG", "soluble on expression in E. coli": "not soluble"}, {"sequence": "MATADVKSTVPHMDMDRGGAFDFSNCIRNQAMCKMGGKAPKLTSTGTTIVAVAFKGGLVMGADSRATAGNIIADKHCEKVHKLTESIYACGAGTAADLDQVTKMLSGNLRLLELNTGRKARVITALRQAKQHLFNYQGYIGAYLLIGGVDPTGPHLYMCSANGTTMAFPFTAQGSGSYAAITILERDFKVDMTKDEAEKLVQRALEAGMHGDNASGNSLNLVIIEPSETVFKGPIVPEFCKRPEPNDLVYKFQAGATKVLKHKTYKYDVVESMDITH", "soluble on expression in E. coli": "not soluble"}, {"sequence": "MIVSILGAGAMGSALSVPLVDNGNEVRIWGTEFDTEILKSISAGREHPRLGVKLNGVEIFWPEQLEKCLENAEVVLLGVSTDGVLPVMSRILPYLKDQYIVLISKGLIDFDNSVLTVPEAVWRLKHDLRERTVAITGPAIAREVAKRMPTTVVFSSPSESSANKMKEIFETEYFGVEVTTDIIGTEITSALKNVYSIAIAWIRGYESRKNVEMSNAKGVIATRAINEMAELIEILGGDRETAFGLSGFGDLIATFRGGRNGMLGELLGKGLSIDEAMEELERRGVGVVEGYKTAEKAYRLSSKINADTKLLDSIYRVLYEGLKVEEVLFELATFK", "soluble on expression in E. coli": "soluble"}, {"sequence": "MEITLNSGFKMPIIGLGVWRMEKEELRDLIIDAIKIGYRHLDCAANYKNEAEVGEALTEAFTTGLVKREDLFITTKLWSSDHGHVIEACKDSLKKLQLDYLDLFLVHIPIATKHTGIGTTDSALGDDGVLDIDTTISLETTWHDMEKLVSMGLVRSIGISNYDVFLTRDCLAYSKIKPAVNQIETHPYFQRDSLVKFCQKHGICVTAHTPLGGATANAEWFGTVSCLDDPVLKDVAEKYKQTVAQIVLRWGIQRNTVVIPKTSKPERLEENFQVFDFQLSKEDMEVIKSMERNYRTHQTAKFWGIELYA", "soluble on expression in E. coli": "soluble"}, {"sequence": "AMNTDLKLPAGKTMTIEDVKQLLERYQMALKKTGEQLGWAYEQAAFPYTVRIHESVLYLQGDGRLYKGMAISVRTAGEETFIDIALPPGATHGDKGKANEFSKWLAKTLGGELHLFSGRTMVFGSA", "soluble on expression in E. coli": "soluble"}, {"sequence": "MDYLIVGAGFTGATLAERLAAAGKRVLVVDRRDHIGGNAYDEMDPHGVLVHRYGPHIFHTNSKKVFDYLSRFTEWRPYYHRVRAVVEGKEVPLPFSLATLRALFSPKLADRLEEKLIARFGYGARVPILRLREEEDPDLRFLADYVYKNVFEGYTLKQWGLRPEELSPSVTARVPVLVSHDTRYFQDAYQAMPKEGYTALFRRMLAHPNIKLLLQADWKEVEGEVKFARLVFTGPIDEFFGYLHGPLPYRSLRFRMELHPGPWAQEVGTVNYPNEHPYTRVTEFKHLTGQDYLPHSTLCYEYPEAYEPGRNEPYYPVPREENEERYRLYLEEAKKLKGVYFAGRLGDYRYYNMDQAVARALKLFEEIVHE", "soluble on expression in E. coli": "soluble"}, {"sequence": "MSLQIQNLTKQFGESKAVNSLQISLPKGEVLGLLGRNGAGKTTTIKMLLGLLTPNEGSITWDGKTFGTSGVTIGYLPEERGLYTKSRVIDQLRYFGRLEGMAKKEVDLAIDHWLDRLAIPEYKFKTAGELSKGNQQKIQLIAALLHNPELLILDEPFSGLDPVNAGMLASIIEEQVQSGKTIILSSHRMEQVEAFCQHVCILKKGEAVVKGQLSDIKKEYGFRNLTIEDTEENEKGLQAIHVSYEKQQGLLYVKVQDDAEALNILQQLQEQGVTLRQFKMLEPTLNEIFVERAK", "soluble on expression in E. coli": "not soluble"}, {"sequence": "MGKEIQLKPKANVSSYVHFLLNYRNKFKEQQPSTYVGFKEFSRKCSEKWRSISKHEKAKYEALAKLDKARYQEEMMNYVGKRKKRRKRDPQAPRRPPSSFLLFCQDHYAQLKRENPNWSVVQVAKATGKMWSTATDLEKHPYEQRVALLRAKYFEELELYRKQCNARKKYRMSARNRCRGKRVRQS", "soluble on expression in E. coli": "not soluble"}, {"sequence": "MGSDKIHHHHHHMEIGIAASVSELDGVQWDALSDGSPLLSHAFLSALEHSGSVGEGTGWQPMPLTVRRDGKLIGAVPLYLKHHSYGEYVFDWSWAGAYTQHGGEYYPKLVAAVPFTPITGSRLLSHDPMLQAHMAEVLRDTVQRLQLSSAHVLFPDEQSAEVLSGQGWLRRQGVQFRWHNQGFASFDEFLMTLTHDKRKKIRQERRKVDAAGVICRRLLGAEIGEREWDFFYKCYVNTYLEHRSSPYLTQAFFHELGERLPGNVMLVLAERDGRRIGAALNLYDTDCLYGRYWGALAYVPNLHFELCYYQAQLFCIERGIRFFEGGAQGEHKLARGFVARETCSFHHIAHPDFEAAIRHFVSREAVGVSHYQQELDERAPYRKPG", "soluble on expression in E. coli": "not soluble"}, {"sequence": "RTVTLTRERIRLEDRAVKMSVKTVGKEKVGVLDIPGFYVGLTDDVKVQLQKLEKQNVSSVIIDLRSNGGGALTEAVSLSGLFIPSGPIVQVRDNNGKVREDSDTDGQVFYKGPLVVLVDRFSASASEIFAAAMQDYGRALVVGEPTFGKGTVQQYRSLNRIYDQMLRPEWPALGSVQYTIQKFYRVNGGSTQRKGVTPDIIMPTGNEETETGEKFEDNALPWDSIDAATYVKSGDLTAFEPELLKEHNARIAKDPEFQNIMKDIARFNAMKDKRNIVSLNYAVREKENNEDDATRLARLNERFKREGKPELKKLDDLPKDYQEPDPYLDETVNIALDLAKLEKARPAEQPA", "soluble on expression in E. coli": "not soluble"}, {"sequence": "MRILLSNDDGVHAPGIQTLAKALREFADVQVVAPDRNRSGASNSLTLESSLRTFTFDNGDIAVQMGTPTDCVYLGVNALMRPRPDIVVSGINAGPNLGDDVIYSGTVAAAMEGRHLGFPALAVSLNGYQHYDTAAAVTCALLRGLSREPLRTGRILNVNVPDLPLAQVKGIRVTRCGSRHPADKVIPQEDPRGNTLYWIGPPGDKYDAGPDTDFAAVDEGYVSVTPLHVDLTAHSAHDVVSDWLDSVGVGTQW", "soluble on expression in E. coli": "not soluble"}, {"sequence": "MASYSDIVDSVRKCQFSPLYLLAGEEPFYIDELATLLETHVVPVDEWDFNRVILYGDKTSVADIANEARRFPMMGRRQLIVVREAQLVDNIDLLEAHYGTFPDTTILVIAYKKKPDKRKAFYTKAEKFGKVFVSETIPDYKMPDFILSAAAGKKLSVSPEVAYMLADYLGNDLEKLMNELDKLILITQDSRGVVTSEIVEQHIGVSKSFNNFELLRAIVNRETGKTFRIAHYFARNEKEHPIQATLPVLFNYFSNLMIVCYLPQKKPDAIMKALSIRNFQVRDYMTGLKMYSTRKVFDIIHEIRMTDARSKGVDTTGTFAGSGDLLRELLHFIFH", "soluble on expression in E. coli": "not soluble"}, {"sequence": "TTCDELISLCDEHHMSVADVVWANETAMRSAVQVRSDLDTVWHVMRRCVQHGCNTNQTVLPGGLDVPRRAPKMYARLASNSDVLKRDGRRSDAVLESSDAAWVDLFALAVSEENAAGGRIVTAPTNGAAGVIPAVLHYYWHFVDHADEDGVVTFLLTAGAIGYLFKRNASISGAEVGCQGEVGTACSMAAAGLCAVMGGTPHQVENAAEIGIEHNLGLTCDPVGGLVQIPCIERNAMAANTAINAVRMAMLGDGTHIVSLDQAIKTMKDTGEDMMAKYKETSKGGLAVN", "soluble on expression in E. coli": "not soluble"}, {"sequence": "MGSDKIHHHHHHMASSENTKNGNGGTLGFEAELFKAADKLRGNMEPSDYKHVALGLIFLKYISDAFEARHKALLAEDVRAAEDKDEYLADNVFWVPKEARWSHLQANAKLPAIGTLIDDAMRAIEKDNESLKGVLPKDYARPALNKVMLGELIDLISGIALNEEGDRSKDILGRVYEYFLGQFAGAEGKRGGEFYTPRSVVRVLVEMLEPYSGRVYDPCCGSGGMFVQSEKFVHEHGGRIGDIAIYGQESNYTTWRLAKMNLAVRGIDSDIRWNNEGSFHKDELRDLKADYVLANPPFNISDWGGDRLREDVRWKFGAPPVGNANYAWLQHIFHHLAPNGTAGVVLANGSMSSNQSGEGEIRRAMIEADAVDCMVALPGQLFYSTQIPACLWFLARNKNPGGGLRDRRGQVLFIDARKLGVLIDRTRRELNDDDIKRIADSYHAWRGEKEAGEYADVLGFCKSASLDEIRKHGHVLTPGRYVGAEAQADDGEPFDEVMRRLSAQWRAQQLEGQRVDDAIERNLRELGYGQ", "soluble on expression in E. coli": "not soluble"}, {"sequence": "MVSPILANIALNGIESIHRSKAKGQIIEPSVRYADDMVIILKPKDNAIEILERISEFLRKRGMQVSQKKTKITAATDGFDFLGWHFKVQKNGKFKSTPSVDNFKAFRKKVKHIVNNSNYGSIVKAQKLSPIVRGWRNYHKFCKMDGSKHSLWFLNHRTYTVFTKESKHTRQSSEKLIKKAFPLVPNSENKHVMVQGIKSPYDGNLTCWSKRNSKLYDGHTSKALTKQNHKCASCGLKFIGEERVHLHHRDGNHDNWKPNNLEALHESCHDYRHMSKTERLEHHHHHH", "soluble on expression in E. coli": "not soluble"}, {"sequence": "MQTDIHDEPVNLGFGVQFEPDDLYRLRSQFLPLGKIGGKPSWLNPKNLPKSADLLCNVCEKPLCFLMQVSANGGINDPPHAFHRSLFLFVCRNPSCSRTNDAANLKAFRCQLPRANDYYSFDGPMDPDLDGDVADPRAPADGPGLCRICGCSAAKKCAKCQVARYCSQAHQVIDWPAHKLECAKAATDGSITDEPKNPRNAFCFKEFGVEIDQEYMPANLFDGLSDDEGDEEEEEGNDEDETEEEKKARIREFEKFVKENKGKNADMTKEDLDEATAEQPKDIDFDKFNRLVNLQPDQIIRYKRYGQPLRATGLSELPEVVEPCELCGAPRRFEMQLMPHLLSLIDVDAIGQSIDWASVYVYTCSASCQIADDGYAKEFVAKQDFL", "soluble on expression in E. coli": "not soluble"}]}]}
